B1: oxidized Trx1 (oTrx1) (enzyme, human, UniProt P10599 1-105, looked up)
chain: MVKQIESKTAFQEALDAAGDKLVVVDFSATWCGPCKMIKPFFHSLSEKYSNVIFLEVDVDDCQDVASECEVKCMPTFQFFKKGQKVGEFSGANKEKLEATINELV
modifications: thiols oxidized with 100 μM diamide (the cysteine engaged in the homodimer is not identified)
notes: Thioredoxin 1, human; same protein as m2, oxidized; mostly a dimer on a non-reducing gel; also used here for the endogenous Trx1 of Jurkat T cells in two functional rows; also called oxidized thioredoxin; source: bought: Fitzgerald industries (30R-2985); treated with 100 μM diamide on ice for 30 min, excess removed
B2: recombinant human Thioredoxin 1 (Trx1), untreated (enzyme, UniProt P10599 1-105, looked up)
chain: MVKQIESKTAFQEALDAAGDKLVVVDFSATWCGPCKMIKPFFHSLSEKYSNVIFLEVDVDDCQDVASECEVKCMPTFQFFKKGQKVGEFSGANKEKLEATINELV
notes: Thioredoxin 1, human; also called untreated Trx1; source: bought: Fitzgerald industries (30R-2985)
B3: oxidized GC1 (oGC1) (complex, human)
chain 1: MFCTKLKDLKITGECPFSLLAPGQVPNESSEEAAGSSESCKATVPICQDIPEKNIQESLPQRKTSRSRVYLHTLAESICKLIFPEFERLNVALQRTLAKHKIKESRKSLEREDFEKTIAEQAVAAGVPVEVIKESLGEEVFKICYEEDENILGVVGGTLKDFLNSFSTLLKQSSHCQEAGKRGRLEDASILCLDKEDDFLHVYYFFPKRTTSLILPGIIKAAAHVLYETEVEVSLMPPCFHNDCSEFVNQPYLLYSVHMKSTKPSLSPSKPQSSLVIPTSLFCKTFPFHFMFDKDMTILQFGNGIRRLMNRRDFQGKPNFEEYFEILTPKINQTFSGIMTMLNMQFVVRVRRWDNSVKKSSRVMDLKGQMIYIVESSAILFLGSPCVDRLEDFTGRGLYLSDIPIHNALRDVVLIGEQARAQDGLKKRLGKLKATLEQAHQALEEEKKKTVDLLCSIFPCEVAQQLWQGQVVQAKKFSNVTMLFSDIVGFTAICSQCSPLQVITMLNALYTRFDQQCGELDVYKVETIGDAYCVAGGLHKESDTHAVQIALMALKMMELSDEVMSPHGEPIKMRIGLHSGSVFAGVVGVKMPRYCLFGNNVTLANKFESCSVPRKINVSPTTYRLLKDCPGFVFTPRSREELPPNFPSEIPGICHFLDAYQQGTNSKPCFQKKDVEDGNANFLGKASGID
chain 2: MYGFVNHALELLVIRNYGPEVWEDIKKEAQLDEEGQFLVRIIYDDSKTYDLVAAASKVLNLNAGEILQMFGKMFFVFCQESGYDTILRVLGSNVREFLQNLDALHDHLATIYPGMRAPSFRCTDAEKGKGLILHYYSEREGLQDIVIGIIKTVAQQIHGTEIDMKVIQQRNEECDHTQFLIEEKESKEEDFYEDLDRFEENGTQESRISPYTFCKAFPFHIIFDRDLVVTQCGNAIYRVLPQLQPGNCSLLSVFSLVRPHIDISFHGILSHINTVFVLRSKEGLLDVEKLECEDELTGTEISCLRLKGQMIYLPEADSILFLCSPSVMNLDDLTRRGLYLSDIPLHDATRDLVLLGEQFREEYKLTQELEILTDRLQLTLRALEDEKKKTDTLLYSVLPPSVANELRHKRPVPAKRYDNVTILFSGIVGFNAFCSKHASGEGAMKIVNLLNDLYTRFDTLTDSRKNPFVYKVETVGDKYMTVSGLPEPCIHHARSICHLALDMMEIAGQVQVDGESVQITIGIHTGEVVTGVIGQRMPRYCLFGNTVNLTSRTETTGEKGKINVSEYTYRCLMSPENSDPQFHLEHRGPVSMKGKKEPMQVWFLSRKNTGTEETKQDDD
modifications: thiols oxidized with 100 μM diamide (cysteines not mapped) | thiols oxidized with 100 μM diamide (cysteines not mapped)
notes: alpha subunit of soluble guanylyl cyclase GC1, human; beta subunit of soluble guanylyl cyclase GC1, human; same protein as m1, oxidized; runs as high molecular weight multimers on a non-reducing gel; also called multimeric oxidized GC1; source: bought: Enzo life sciences (ALX-201-177-C010); treated with 100 μM diamide on ice for 30 min, excess removed
B4: purified recombinant human soluble guanylyl cyclase (GC1), untreated (complex)
chain 1: MFCTKLKDLKITGECPFSLLAPGQVPNESSEEAAGSSESCKATVPICQDIPEKNIQESLPQRKTSRSRVYLHTLAESICKLIFPEFERLNVALQRTLAKHKIKESRKSLEREDFEKTIAEQAVAAGVPVEVIKESLGEEVFKICYEEDENILGVVGGTLKDFLNSFSTLLKQSSHCQEAGKRGRLEDASILCLDKEDDFLHVYYFFPKRTTSLILPGIIKAAAHVLYETEVEVSLMPPCFHNDCSEFVNQPYLLYSVHMKSTKPSLSPSKPQSSLVIPTSLFCKTFPFHFMFDKDMTILQFGNGIRRLMNRRDFQGKPNFEEYFEILTPKINQTFSGIMTMLNMQFVVRVRRWDNSVKKSSRVMDLKGQMIYIVESSAILFLGSPCVDRLEDFTGRGLYLSDIPIHNALRDVVLIGEQARAQDGLKKRLGKLKATLEQAHQALEEEKKKTVDLLCSIFPCEVAQQLWQGQVVQAKKFSNVTMLFSDIVGFTAICSQCSPLQVITMLNALYTRFDQQCGELDVYKVETIGDAYCVAGGLHKESDTHAVQIALMALKMMELSDEVMSPHGEPIKMRIGLHSGSVFAGVVGVKMPRYCLFGNNVTLANKFESCSVPRKINVSPTTYRLLKDCPGFVFTPRSREELPPNFPSEIPGICHFLDAYQQGTNSKPCFQKKDVEDGNANFLGKASGID
chain 2: MYGFVNHALELLVIRNYGPEVWEDIKKEAQLDEEGQFLVRIIYDDSKTYDLVAAASKVLNLNAGEILQMFGKMFFVFCQESGYDTILRVLGSNVREFLQNLDALHDHLATIYPGMRAPSFRCTDAEKGKGLILHYYSEREGLQDIVIGIIKTVAQQIHGTEIDMKVIQQRNEECDHTQFLIEEKESKEEDFYEDLDRFEENGTQESRISPYTFCKAFPFHIIFDRDLVVTQCGNAIYRVLPQLQPGNCSLLSVFSLVRPHIDISFHGILSHINTVFVLRSKEGLLDVEKLECEDELTGTEISCLRLKGQMIYLPEADSILFLCSPSVMNLDDLTRRGLYLSDIPLHDATRDLVLLGEQFREEYKLTQELEILTDRLQLTLRALEDEKKKTDTLLYSVLPPSVANELRHKRPVPAKRYDNVTILFSGIVGFNAFCSKHASGEGAMKIVNLLNDLYTRFDTLTDSRKNPFVYKVETVGDKYMTVSGLPEPCIHHARSICHLALDMMEIAGQVQVDGESVQITIGIHTGEVVTGVIGQRMPRYCLFGNTVNLTSRTETTGEKGKINVSEYTYRCLMSPENSDPQFHLEHRGPVSMKGKKEPMQVWFLSRKNTGTEETKQDDD
notes: alpha subunit of soluble guanylyl cyclase GC1, human; beta subunit of soluble guanylyl cyclase GC1, human; alpha/beta heterodimer as bought; also called untreated GC1; source: bought: Enzo life sciences (ALX-201-177-C010), purified recombinant

This data set deals with the molecule itself. In words: non-reducing SDS-PAGE with Western blot; purified GC1 or Trx1, untreated, reduced (10 mM DTT) or oxidized (100 μM diamide), excess reagent removed; 12% SDS-PAGE under non-reducing conditions, blots probed with anti-GC1 α and β or anti-Trx1. (In western blotting, separated proteins are transferred to a membrane and probed.)
For B1, the binding result is listed as “binds”.

Turning to B2, the binding result is “binds”.

On to B3, for which the binding result was “binds”.

Regarding B4, the binding result was “binds”.

The values are drawn from article PMC10135718, “Inhibitory Peptide of Soluble Guanylyl Cyclase/Trx1 Interface Blunts the Dual Redox Signaling Functions of the Complex” (Antioxidants, 2023).
